IntAct's records for PubMed 18854158

B1: Double-strand break repair protein rad32 (Schizosaccharomyces pombe (strain ATCC 38366 / 972)), Q09683 (parent)
chain: MPNDPSDMNNELHNENTIRILISSDPHVGYGEKDPVRGNDSFVSFNEILEIARERDVDMILLGGDIFHDNKPSRKALYQALRSLRLNCLGDKPCELELLSDTSLTTGDTAVCNINYLDPNINVAIPVFSIHGNHDDPSGDGRYSALDILQVTGLVNYFGRVPENDNIVVSPILLQKGFTKLALYGISNVRDERLYHSFRENKVKFLRPDLYRDEWFNLLTVHQNHSAHTPTSYLPESFIQDFYDFVLWGHEHECLIDGSYNPTQKFTVVQPGSTIATSLSPGETAPKHCGILNITGKDFHLEKIRLRTVRPFIMKDIILSEVSSIPPMVENKKEVLTYLISKVEEAITEANAQWYEAQGTVPVVENEKPPLPLIRLRVDYTGGYQTENPQRFSNRFVGRVANATDVVQFYLKKKYTRSKRNDGLYTSAVEDIKINSLRVESLVNEYLKTNRLECLPEDSLGEAVVNFVEKDDRDAIKECVETQLNKQINLLVKKRVTEENLEQEISSIINDLPKISTTKRKDYEELPEEVSETSINIAEHTPVLKHTSSLLDHHSPLATSSSEHEMEATPSPALLKKTNKRRELPSSLTKKNTRTPQRSKEVKKVPARKLSQSTKKSDKNTQSTLLFYDPSSTTEAQYLDNEDDEILDD
partner: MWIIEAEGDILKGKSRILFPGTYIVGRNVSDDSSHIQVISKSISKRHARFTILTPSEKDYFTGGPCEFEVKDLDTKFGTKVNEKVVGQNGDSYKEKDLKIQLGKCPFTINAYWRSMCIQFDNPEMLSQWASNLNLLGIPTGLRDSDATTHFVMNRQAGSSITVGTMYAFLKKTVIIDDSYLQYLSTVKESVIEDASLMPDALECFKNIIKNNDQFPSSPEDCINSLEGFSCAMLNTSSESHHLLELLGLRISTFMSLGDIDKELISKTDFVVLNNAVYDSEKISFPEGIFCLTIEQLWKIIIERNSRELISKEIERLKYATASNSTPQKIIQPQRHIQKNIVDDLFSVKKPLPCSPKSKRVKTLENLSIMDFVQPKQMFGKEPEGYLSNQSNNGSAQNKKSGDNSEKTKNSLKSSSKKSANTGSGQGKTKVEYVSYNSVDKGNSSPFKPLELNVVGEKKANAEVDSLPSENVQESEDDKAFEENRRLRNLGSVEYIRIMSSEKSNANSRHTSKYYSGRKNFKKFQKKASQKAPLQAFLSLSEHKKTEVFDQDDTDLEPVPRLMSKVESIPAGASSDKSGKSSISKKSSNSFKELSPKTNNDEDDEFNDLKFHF
B2: Double-strand break repair protein rad32 (Schizosaccharomyces pombe (strain ATCC 38366 / 972)), Q09683 (parent)
chain: B1 chain
partner: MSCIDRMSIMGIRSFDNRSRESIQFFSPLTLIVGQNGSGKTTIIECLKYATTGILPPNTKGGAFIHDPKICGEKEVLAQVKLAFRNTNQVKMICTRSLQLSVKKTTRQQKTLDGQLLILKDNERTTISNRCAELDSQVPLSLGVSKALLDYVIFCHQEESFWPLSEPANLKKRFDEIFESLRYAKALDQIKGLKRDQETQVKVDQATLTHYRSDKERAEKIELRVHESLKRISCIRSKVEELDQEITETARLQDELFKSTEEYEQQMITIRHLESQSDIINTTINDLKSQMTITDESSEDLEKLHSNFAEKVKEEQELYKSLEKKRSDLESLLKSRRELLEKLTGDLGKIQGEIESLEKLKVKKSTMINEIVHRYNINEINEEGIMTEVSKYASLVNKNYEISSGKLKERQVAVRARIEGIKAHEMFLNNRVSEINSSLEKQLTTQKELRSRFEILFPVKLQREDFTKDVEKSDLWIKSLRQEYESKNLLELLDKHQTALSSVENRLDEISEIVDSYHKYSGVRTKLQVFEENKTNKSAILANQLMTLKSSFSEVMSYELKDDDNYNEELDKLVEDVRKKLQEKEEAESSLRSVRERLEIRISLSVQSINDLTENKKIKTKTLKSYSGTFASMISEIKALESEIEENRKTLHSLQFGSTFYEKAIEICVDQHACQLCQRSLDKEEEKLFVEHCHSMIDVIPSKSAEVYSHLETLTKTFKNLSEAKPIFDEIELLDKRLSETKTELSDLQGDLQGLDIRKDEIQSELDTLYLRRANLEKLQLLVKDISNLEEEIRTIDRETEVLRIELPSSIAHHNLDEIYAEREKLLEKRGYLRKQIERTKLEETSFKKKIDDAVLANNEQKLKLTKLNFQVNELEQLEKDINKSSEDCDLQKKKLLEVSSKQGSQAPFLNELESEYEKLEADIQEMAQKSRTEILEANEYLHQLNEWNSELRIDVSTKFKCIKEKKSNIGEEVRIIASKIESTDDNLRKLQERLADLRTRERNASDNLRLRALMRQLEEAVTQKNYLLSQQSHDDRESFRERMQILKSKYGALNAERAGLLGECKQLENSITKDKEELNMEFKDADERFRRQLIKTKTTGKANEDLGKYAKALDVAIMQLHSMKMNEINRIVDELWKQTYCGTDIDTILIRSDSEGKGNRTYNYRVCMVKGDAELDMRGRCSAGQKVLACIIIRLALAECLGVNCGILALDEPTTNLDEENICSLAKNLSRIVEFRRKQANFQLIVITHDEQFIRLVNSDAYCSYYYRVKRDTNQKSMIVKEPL

Variants of: B1
Settings: with nbs1_schpo nbs1, O43070

Row | effect of a mutation on the interaction | Variant
1 | decreasing interaction | L77K;L154D

Variants of: B2
Settings: with rad50_schpo rad50, Q9UTJ8

Row | effect of a mutation on the interaction | Variant
2 | decreasing interaction | L77K;L154D
